Reference: the Immune Epitope Database (IEDB)
pKd: −log10 of the molar value.

Experiments:
Assay in all cases: IEDB peptide-MHC binding, purified MHC/competitive/fluorescence; filed as Kd, often an IC50 or EC50 that approximates it; ≥ and ≤ were set here for values at or beyond the usual limits of such assays
[1] = molecular target: HLA-B*18:01; details: source organism: Entamoeba histolytica HM-1:IMSS
[2] = molecular target: HLA-B*53:01; details: source organism: Entamoeba histolytica HM-1:IMSS
[3] = molecular target: HLA-B*57:01
[4] = molecular target: HLA-B*14:02; details: source organism: Entamoeba histolytica HM-1:IMSS
[5] = molecular target: HLA-B*39:01
[6] = molecular target: HLA-B*51:01
[7] = molecular target: HLA-A*02:19
[8] = molecular target: HLA-B*44:02; details: source organism: Entamoeba histolytica HM-1:IMSS
[9] = molecular target: HLA-B*40:01; details: source organism: Entamoeba histolytica HM-1:IMSS
[10] = molecular target: HLA-A*30:02; details: source organism: Entamoeba histolytica HM-1:IMSS
[11] = molecular target: HLA-B*27:05; details: source organism: Entamoeba histolytica HM-1:IMSS
[12] = molecular target: HLA-B*46:01
[13] = molecular target: HLA-B*27:03; details: source organism: Entamoeba histolytica HM-1:IMSS
[14] = molecular target: HLA-B*15:17; details: source organism: Entamoeba histolytica HM-1:IMSS
[15] = molecular target: HLA-A*11:01; details: source organism: Entamoeba histolytica HM-1:IMSS
[16] = molecular target: HLA-A*30:01; details: source organism: Entamoeba histolytica HM-1:IMSS
[17] = molecular target: HLA-A*02:01
[18] = molecular target: HLA-A*66:01; details: source organism: Entamoeba histolytica HM-1:IMSS
[19] = molecular target: HLA-B*08:01; details: source organism: Entamoeba histolytica HM-1:IMSS
[20] = molecular target: HLA-A*26:01
[21] = molecular target: HLA-A*01:01; details: source organism: Entamoeba histolytica HM-1:IMSS
[22] = molecular target: HLA-A*24:03
[23] = molecular target: HLA-B*58:01; details: source organism: Entamoeba histolytica HM-1:IMSS
[24] = molecular target: HLA-A*68:02
[25] = molecular target: HLA-A*03:01; details: source organism: Entamoeba histolytica HM-1:IMSS
[26] = molecular target: HLA-B*15:01; details: source organism: Entamoeba histolytica HM-1:IMSS
[27] = molecular target: HLA-A*29:02
[28] = molecular target: HLA-A*23:01
[29] = molecular target: HLA-A*02:16; details: source organism: Escherichia coli O157:H7 str. Sakai
[30] = molecular target: HLA-A*02:11; details: source organism: Escherichia coli O157:H7 str. Sakai
[31] = molecular target: HLA-A*02:03; details: source organism: Escherichia coli O157:H7 str. Sakai
[32] = molecular target: HLA-A*80:01; details: source organism: Escherichia coli O157:H7 str. Sakai
[33] = molecular target: HLA-A*69:01; details: source organism: Escherichia coli O157:H7 str. Sakai
[34] = molecular target: HLA-A*02:12; details: source organism: Escherichia coli O157:H7 str. Sakai
[35] = source organism: Entamoeba histolytica HM-1:IMSS
[36] = source organism: Escherichia coli O157:H7 str. Sakai

## NPAACSYMV
[1]
  pKd: ≤ 4.70
[2]
  pKd: ≤ 5.30
[3]; [35]
  pKd: ≤ 4.70
[4]
  pKd: ≤ 5.30
[5]; [35]
  pKd: 6.64
[6]; [35]
  pKd: ≤ 4.70
[7]; [35]
  pKd: ≤ 4.70
[8]
  pKd: ≤ 5.30
[9]
  pKd: ≤ 5.30
[10]
  pKd: ≤ 5.30
[11]
  pKd: ≤ 5.30
[12]; [35]
  pKd: ≤ 4.70
[13]
  pKd: ≤ 4.70
[14]
  pKd: ≤ 4.70
[15]
  pKd: ≤ 5.30
[16]
  pKd: ≤ 5.30
[17]; [35]
  pKd: ≤ 4.70
[18]
  pKd: ≤ 5.30
[19]
  pKd: ≤ 5.30
[20]; [35]
  pKd: ≤ 4.70
[21]
  pKd: ≤ 5.30
[22]; [35]
  pKd: ≤ 4.70
[23]
  pKd: ≤ 5.30
[24]; [35]
  pKd: 7.55
[25]
  pKd: ≤ 4.70
[26]
  pKd: ≤ 4.70
[27]; [35]
  pKd: 6.91
[28]; [35]
  pKd: ≤ 4.70

## HQIWLALRY
[3]; [36]
  pKd: ≤ 4.70
[29]
  pKd: ≤ 4.70
[5]; [36]
  pKd: ≤ 4.70
[6]; [36]
  pKd: ≤ 4.70
[7]; [36]
  pKd: ≤ 4.70
[30]
  pKd: ≤ 4.70
[12]; [36]
  pKd: ≤ 4.70
[31]
  pKd: ≤ 4.70
[32]
  pKd: 8.14
[17]; [36]
  pKd: ≤ 4.70
[20]; [36]
  pKd: ≤ 4.70
[22]; [36]
  pKd: ≤ 4.70
[33]
  pKd: ≤ 4.70
[24]; [36]
  pKd: ≤ 4.70
[34]
  pKd: ≤ 4.70
[27]; [36]
  pKd: 8.80
[28]; [36]
  pKd: ≤ 4.70
